The target of one assay is T1, Cyno FcRn (Cynomolgus, UniProt Q8SPV9 24-297; Q8SPW0 21-119).
T1 chain 1: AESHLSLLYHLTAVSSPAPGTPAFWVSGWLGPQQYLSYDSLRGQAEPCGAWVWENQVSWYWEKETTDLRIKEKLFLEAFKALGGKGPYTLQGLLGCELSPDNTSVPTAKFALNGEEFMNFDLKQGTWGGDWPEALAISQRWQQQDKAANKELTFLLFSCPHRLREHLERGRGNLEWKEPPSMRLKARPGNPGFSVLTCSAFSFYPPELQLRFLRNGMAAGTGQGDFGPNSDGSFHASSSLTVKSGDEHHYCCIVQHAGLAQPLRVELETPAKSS
T1 chain 2: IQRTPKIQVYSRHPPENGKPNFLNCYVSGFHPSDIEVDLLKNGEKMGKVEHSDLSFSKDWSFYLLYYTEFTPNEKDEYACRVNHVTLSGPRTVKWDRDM
The experiment in a line: SPR (Biacore); pH 6.0. Background: Surface plasmon resonance follows binding to a sensor surface in real time, without labels.

The target of assay [1] is T2, human complement C5 (human, UniProt P01031 19-673; P01031 678-1676). The experiment in a line: competition ELISA; pH 7.4.
The target in assay [2] is T2, human complement C5. The experiment in a line: competition ELISA; pH 6.0.

Where “and” joins values, the source holds several entries; their conditions need not be identical. Identical values can stand only once.

B1: anti-C5 mAb FMEH-IgG4PLA (antibody)
heavy: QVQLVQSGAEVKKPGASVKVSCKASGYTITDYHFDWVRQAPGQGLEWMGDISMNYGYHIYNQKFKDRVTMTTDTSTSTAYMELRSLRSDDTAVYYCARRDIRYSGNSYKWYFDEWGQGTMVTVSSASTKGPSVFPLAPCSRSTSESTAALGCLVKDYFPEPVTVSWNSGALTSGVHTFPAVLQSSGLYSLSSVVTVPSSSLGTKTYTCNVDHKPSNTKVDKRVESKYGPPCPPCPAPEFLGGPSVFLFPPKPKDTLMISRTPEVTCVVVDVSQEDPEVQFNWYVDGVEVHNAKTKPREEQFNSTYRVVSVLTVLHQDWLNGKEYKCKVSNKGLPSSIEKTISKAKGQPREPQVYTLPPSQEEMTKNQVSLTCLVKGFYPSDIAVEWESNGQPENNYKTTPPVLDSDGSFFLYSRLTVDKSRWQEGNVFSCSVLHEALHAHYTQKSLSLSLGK
light: DIQLTQSPSFLSASVGDRVTITCRTSKSISKHLAWYQQKPGKAPKLLIYSGSTLQSGVPSRFSGSGSGTEFTLTISSLQPEDFATYYCQQHNEYPYTFGQGTKLEIK
As for B1, the Ka in the assay with Cyno FcRn was 7.13e+07 M⁻¹.

B2: parental mAb H1-8/L1-9 ScFV (scFv)
chain: MDWTWVFLFLLSVTAGVHSQVQLVQSGAEVKKPGASVKVSCKASGYTITDYHLDWVRQAPGQGLEWMGDISPNYGYTIYNQKFKDRVTMTTDTSTSTAYMELRSLRSDDTAVYYCARRDIRYSGNSYKWYFDVWGQGTMVTVSSMEAPAQLLFLLLLWLPDTTGDIQLTQSPSFLSASVGDRVTITCRTSKSISKHLAWYQQKPGKAPKLLIYSGSTLQSGVPSRFSGSGSGTEFTLTISSLQPEDFATYYCQQHNEYPYTFGQGTKLEIK
Broadly, the EC50 is the concentration at which the effect is half-maximal. Read a low EC50 as higher potency in that assay. Turning to B2, in the assay with human complement C5 [1], the half-maximal effective concentration (EC50) was 2.08 µg/mL and 1.62 µg/mL and 2.33 µg/mL.

B3: scFV mutant clone 14C6 from mAb 1819 affinity maturation (T to H mutation in position 9 of VH CDR2) (scFv)
chain: B2 chain
In the case of B3, the 50% effective concentration (EC50) in the assay with human complement C5 [1] is 0.404 µg/mL; with human complement C5 [2], 4.97 µg/mL.

Source of the values: patent US20220204602A1 (published 2022).
